In data set [1] the target is NAD+-dependent formate dehydrogenase from Starkeya novella (Starkeya novella).
Substrate in data set [2]: NC(=S)c1ccc[n+]([C@@H]2O[C@H](COP(=O)(O)OP(=O)(O)OC[C@H]3O[C@@H](n4cnc5c(N)ncnc54)[C@H](OP(=O)(O)O)[C@@H]3O)[C@@H](O)[C@H]2O)c1
Briefly: purified protein. The note with it: 15.0 mM NADH; buffer B; substrate inhibition term in fit.

Substrate in data set [3]: NC(=O)c1ccc[n+]([C@@H]2O[C@H](COP(=O)([O-])OP(=O)(O)OC[C@H]3O[C@@H](n4cnc5c(N)ncnc54)[C@H](O)[C@@H]3O)[C@@H](O)[C@H]2O)c1
Briefly: purified protein. As to conditions: 20 mM formate, buffer B, 30 °C.

Substrate in data set [4]: O=CO
Briefly: purified protein. The note with it: 2.0 mM NAD+, buffer B, 30 °C.

Data set [5] concerns the molecule itself.

The molecule “NAD+-dependent formate dehydrogenase from Starkeya novella (enzyme)” showed a stoichiometry N in data set [1] of 2.

B1: SthA (Escherichia coli K-12) (protein)
chain: PHSYDYDAIVIGSGPGGEGAAMGLVKQGARVAVIERYQNVGGGCTHWGTIPSKALRHAVSRIIEFNQNPLYSDHSRLLRSSFADILNHADNVINQQTRMRQGFYERNHCEILQGNARFVDEHTLALDCPDGSVETLTAEKFVIACGSRPYHPTDVDFTHPRIYDSDSILSMHHEPRHVLIYGAGVIGCEYASIFRGMDVKVDLINTRDRLLAFLDQEMSDSLSYHFWNSGVVIRHNEEYEKIEGCDDGVIMHLKSGKKLKADCLLYANGRTGNTDSLALQNIGLETDSRGQLKVNSMYQTAQPHVYAVGDVIGYPSLASAAYDQGRIAAQALVKGEATAHLIEDIPTGIYTIPEISSVGKTEQQLTAMKVPYEVGRAQFKHLARAQIVGMNVGTLKILFHRETKEILGIHCFGERAAEIIHIGQAIMEQKGGGNTIEYFVNTTFNYPTMAEAYRVAALNGLNRLF
Take B1: in “purified protein [2]”, the Michaelis constant (Km) worked out at 30 µM and the catalytic constant (kcat) stood at 19.9 s⁻¹.

B2: Fdh (Ancylobacter novellus DSM 506) (protein)
chain: MAKILCVLYDDPVDGYPKTYARDDLPKIDHYPGGQTLPTPKAIDFTPGALLGSVSGELGLRKYLEANGHTFVVTSDKDGPDSVFERELVDADVVISQPFWPAYLTPERIAKAKNLKLALTAGIGSDHVDLQSAIDRGITVAEVTYCNSISVAEHVVMMILGLVRNYIPSHDWARKGGWNIADCVEHSYDLEGMTVGSVAAGRIGLAVLRRLAPFDVKLHYTDRHRLPEAVEKELGLVWHDTREDMYPHCDVVTLNVPLHPETEHMINDETLKLFKRGAYIVNTARGKLADRDAIVRAIESGQLAGYAGDVWFPQPAPKDHPWRTMKWEGMTPHISGTSLSAQARYAAGTREILECFFEGRPIRDEYLIVQGGALAGTGAHSYSKGNATGGSEEAAKFKKAG
As for B2, in the data set “purified protein [3]”, the Km is 110 µM and the kcat was found to be 1.08 s⁻¹. Moreover, in the data set “purified protein [4]”, the Km came to 2150 µM and the kcat was 0.87 s⁻¹.

B3: soluble pyridine nucleotide transhydrogenase SthA from E. coli (enzyme, E. coli K-12, UniProt P27306 1-466, looked up)
chain: MPHSYDYDAIVIGSGPGGEGAAMGLVKQGARVAVIERYQNVGGGCTHWGTIPSKALRHAVSRIIEFNQNPLYSDHSRLLRSSFADILNHADNVINQQTRMRQGFYERNHCEILQGNARFVDEHTLALDCPDGSVETLTAEKFVIACGSRPYHPTDVDFTHPRIYDSDSILSMHHEPRHVLIYGAGVIGCEYASIFRGMDVKVDLINTRDRLLAFLDQEMSDSLSYHFWNSGVVIRHNEEYEKIEGCDDGVIMHLKSGKKLKADCLLYANGRTGNTDSLALQNIGLETDSRGQLKVNSMYQTAQPHVYAVGDVIGYPSLASAAYDQGRIAAQALVKGEATAHLIEDIPTGIYTIPEISSVGKTEQQLTAMKVPYEVGRAQFKHLARAQIVGMNVGTLKILFHRETKEILGIHCFGERAAEIIHIGQAIMEQKGGGNTIEYFVNTTFNYPTMAEAYRVAALNGLNRLF
For the molecule B3, the “stoichiometry N” value in data set [5] worked out at 8.

One may read the stoichiometry N as a count of units in the complex or per binding partner. Broadly, the Km is the concentration of substrate that gives half-maximal velocity. What is called kcat is the number of substrate molecules converted per active site and unit of time at saturation.

(Values after paper PMC8717395 (JACS Au, 2021).)
